From article PMC8219104 (Research Square, 2021) come the findings set out here.

This experiment deals with SARS-CoV-2 spike receptor-binding domain (RBD), amino acids 333 to 529, bacteria-expressed and refolded (SARS-CoV-2, wild type (parental), UniProt P0DTC2). Kind of experiment: SPR. To be noted: both partners purified.

B1: Sybody Sb68 (VHH)
VHH: QVQLVESGGGSVQAGGSLRLSCAASGSISSITYLGWFRQAPGKEREGVAALITVNGHTYYADSVKGRFTVSLDNAKNTVYLQMNSLKPEDTALYYCAAAAWGYAWPLHQDDYWYWGQGTQVTVSA
For the molecule B1, the equilibrium dissociation constant (Kd) was 63 nM.

By Kd is commonly meant a measure of binding affinity in units of concentration.
